Read-outs that look alike come from different tables or passages of the source.
How the values were obtained:
[1] = target: eGFP-tagged measles virus C protein, full length (human measles virus) (UniProt P03424); test: MST
[2] = target: eGFP-tagged measles virus C protein, full length (human measles virus) (UniProt P03424); test: MST; remark: listed apart in the source
[3] = target: measles virus (MeV) phosphoprotein (P), optimized construct (human measles virus) (UniProt P03422); test: cryo-EM structure

measles virus (MeV) N protein, monomeric (N_ΔN-arm) (domain or fragment)
Kd [1]: 4.57 µM | Kd [2]: 3.92 µM

measles virus (MeV) phosphoprotein (P), optimized construct (from UniProt P03422 1-507) (natural protein)
stoichiometry N [3]: 4
